From US20160040133A1 (published 2016)

Molecular target: T1, B2 C-9ASM (pAD-GAL4 fusion, yeast two-hybrid prey) (flock house virus)
T1 construct: Carries 9 alanine substitutions at the C-terminus; also called FHV B2 c-9ASM
Assay: yeast two-hybrid (Table 1: colony -, β-GAL White)

B1: PAZ domain of Arabidopsis Dicer-like protein 1 (DCL1) (pBD-GAL4 fusion, yeast two-hybrid bait) (other)
chain: MKLLSSIEQACDICRLKKLKCSKEKPKCAKCLKNNWECRYSPKTKRSPLTRAHLTEVESRLERLEQLFLLIFPREDLDMILKMDSLQDIKALLTGLFVQDNVNKDAVTDRLASVETDMPLTLRQHRISATSSSEESSNKGQRQLTVSEVEEDLSKGKLMMADGCMVAEDLIGKIVTAAHSGKRFYVDSICYDMSAETSFPRKEGYLGPLEYNTYADYYKQKYGVDLNCKQQPLIKGRGVSYCKNLLSPRFEQSGESETVLDKTYYVFLPPELCVVHP
notes: domain: BD;domain: PAZ domain; PAZ domain amplified by PCR and inserted into SalI and PstI digested pBD-GAL4 cam; also called DCL1-PAZ; PAZ domain of DCL1
binding result: no binding
